Measured values reported in the Immune Epitope Database (IEDB).

Assays:
[1] = target: HLA-B*15:02; assay: IEDB peptide-MHC binding, purified MHC/competitive/fluorescence; filed as Kd, often an IC50 or EC50 that approximates it; ≥ and ≤ were set here for values at or beyond the usual limits of such assays; details: source organism: Homo sapiens
[2] = target: HLA-B*46:01; assay: as above; details: source organism: Homo sapiens
[3] = target: HLA-A*02:07; assay: IEDB peptide-MHC binding, purified MHC/competitive/radioactivity; filed as Kd, often an IC50 or EC50 that approximates it; ≥ and ≤ were set here for values at or beyond the usual limits of such assays; details: source organism: Homo sapiens
[4] = target: HLA-A*29:02; assay: as above; details: source organism: Homo sapiens
[5] = target: HLA-A*02:01; assay: as above; details: source organism: Homo sapiens
[6] = target: HLA-B*57:01; assay: as above; details: source organism: Homo sapiens
[7] = target: HLA-B*58:01; assay: as above; details: source organism: Homo sapiens
[8] = target: HLA-B*44:03; assay: IEDB peptide-MHC binding, purified MHC/competitive/fluorescence; ≥ and ≤ were set here for values at or beyond the usual limits of such assays; details: source organism: Mus musculus
[9] = target: HLA-B*14:02; assay: as above; details: source organism: Mus musculus
[10] = target: HLA-A*01:01; assay: as above; details: source organism: Mus musculus
[11] = target: HLA-B*51:01; assay: as above; details: source organism: Mus musculus
[12] = target: HLA-A*11:01; assay: as above; details: source organism: Mus musculus
[13] = target: HLA-A*31:01; assay: as above; details: source organism: Mus musculus
[14] = target: HLA-A*29:02; assay: as above; details: source organism: Mus musculus
[15] = target: HLA-A*02:01; assay: as above; details: source organism: Mus musculus
[16] = target: HLA-B*08:01; assay: as above; details: source organism: Mus musculus
[17] = target: HLA-B*35:01; assay: as above; details: source organism: Mus musculus
[18] = target: HLA-A*03:01; assay: as above; details: source organism: Mus musculus
[19] = target: HLA-A*25:01; assay: as above; details: source organism: Mus musculus
[20] = target: HLA-B*53:01; assay: as above; details: source organism: Mus musculus
[21] = target: HLA-B*40:02; assay: as above; details: source organism: Mus musculus
[22] = target: HLA-A*68:02; assay: as above; details: source organism: Mus musculus
[23] = target: HLA-B*07:02; assay: as above; details: source organism: Mus musculus
[24] = target: HLA-A*24:02; assay: as above; details: source organism: Mus musculus
[25] = target: HLA-B*37:01; assay: as above; details: source organism: Mus musculus
[26] = target: HLA-B*58:01; assay: as above; details: source organism: Mus musculus
[27] = target: HLA-B*18:01; assay: as above; details: source organism: Mus musculus
[28] = target: HLA-A*02:12; assay: IEDB peptide-MHC binding, purified MHC/direct/fluorescence; filed as Kd, often an IC50 or EC50 that approximates it; ≥ and ≤ were set here for values at or beyond the usual limits of such assays; details: source organism: Geobacillus sp. WCH70
[29] = target: HLA-A*02:01; assay: as above
[30] = target: HLA-A*02:06; assay: as above; details: source organism: Geobacillus sp. WCH70
[31] = target: HLA-A*02:03; assay: IEDB peptide-MHC binding, purified MHC/competitive/fluorescence; filed as Kd, often an IC50 or EC50 that approximates it; ≥ and ≤ were set here for values at or beyond the usual limits of such assays
[32] = target: HLA-B*15:01; assay: IEDB peptide-MHC binding, purified MHC/direct/fluorescence; filed as Kd, often an IC50 or EC50 that approximates it; ≥ and ≤ were set here for values at or beyond the usual limits of such assays; details: source organism: Camelpox virus M-96
[33] = target: HLA-B*15:17; assay: as above; details: source organism: Camelpox virus M-96
[34] = target: HLA-A*26:03; assay: as above; details: source organism: Variola virus
[35] = target: HLA-A*01:01; assay: as above; details: source organism: Camelpox virus M-96
[36] = target: HLA-A*68:02; assay: as above; details: source organism: Camelpox virus M-96
[37] = target: HLA-B*48:01; assay: as above; details: source organism: Camelpox virus M-96
[38] = target: HLA-B*08:03; assay: as above; details: source organism: Variola virus
[39] = target: HLA-A*69:01; assay: as above; details: source organism: Camelpox virus M-96
[40] = target: HLA-B*57:01; assay: as above; details: source organism: Camelpox virus M-96
[41] = target: HLA-B*27:05; assay: as above; details: source organism: Camelpox virus M-96
[42] = target: HLA-B*58:01; assay: as above; details: source organism: Camelpox virus M-96
[43] = target: HLA-B*18:01; assay: as above; details: source organism: Camelpox virus M-96
[44] = target: HLA-A*11:01; assay: IEDB peptide-MHC binding, purified MHC/competitive/fluorescence; filed as Kd, often an IC50 or EC50 that approximates it; ≥ and ≤ were set here for values at or beyond the usual limits of such assays; details: source organism: Vaccinia virus Copenhagen
[45] = target: HLA-A*30:01; assay: as above; details: source organism: Vaccinia virus Copenhagen
[46] = target: HLA-B*08:01; assay: as above; details: source organism: Vaccinia virus Copenhagen
[47] = target: HLA-B*07:02; assay: as above; details: source organism: Vaccinia virus Copenhagen

FAFVTDNTY
Kd [1]: 2.55 nM | Kd [2]: 13.1 nM | Kd [3]: ≥ 77.7 µM | Kd [4]: 44.1 nM | Kd [5]: ≥ 78.1 µM | Kd [6]: 106 nM | Kd [7]: 84 nM

VALFSSCPVAY
IC50 [8]: ≥ 20 µM | IC50 [9]: ≥ 20 µM | IC50 [10]: ≥ 20 µM | IC50 [11]: ≥ 20 µM | IC50 [12]: ≥ 20 µM | IC50 [13]: ≥ 20 µM | IC50 [14]: 38.1 nM | IC50 [15]: ≥ 20 µM | IC50 [16]: ≥ 20 µM | IC50 [17]: 13.8 nM | IC50 [18]: ≥ 20 µM | IC50 [19]: ≥ 20 µM | IC50 [20]: ≥ 20 µM | IC50 [21]: ≥ 20 µM | IC50 [22]: ≥ 20 µM | IC50 [23]: ≥ 20 µM | IC50 [24]: ≥ 20 µM | IC50 [25]: ≥ 20 µM | IC50 [26]: ≥ 20 µM | IC50 [27]: ≥ 20 µM

GLPESTPSL
Kd [28]: 120 nM | Kd ([29]; source organism: Bacillus cereus): 12.1 nM | Kd [30]: 14 nM | Kd ([31]; source organism: Bacillus anthracis str. A0488): 21.4 nM

NRLKPRDFK
Kd [32]: ≥ 20 µM | Kd [33]: ≥ 20 µM | Kd [34]: ≥ 20 µM | Kd [35]: ≥ 20 µM | Kd ([29]; source organism: Camelpox virus M-96): ≥ 20000 nM | Kd [36]: ≥ 20 µM | Kd [37]: ≥ 20 µM | Kd [38]: ≥ 20 µM | Kd [39]: ≥ 20 µM | Kd [40]: ≥ 20 µM | Kd [41]: 1790 nM | Kd [42]: ≥ 20 µM | Kd [43]: ≥ 20 µM | Kd [44]: ≥ 20 µM | Kd [45]: ≥ 20 µM | Kd [46]: 3000 nM | Kd [47]: 3000 nM | Kd ([31]; source organism: Vaccinia virus Copenhagen): ≥ 20000 nM
